Among the data in publication PMC11143242 (2024) are Kd and koff values, retold here.

For orientation: Kd means the constant that tells how readily two partners part at equilibrium. Higher therefore signals a looser complex. As a reminder, the koff is a measure of how fast the partners let go of each other. A lower koff goes with a long-lived complex.

What all share (assay): SPR
A general note: SPR reads the build-up and loss of mass on a sensor chip optically.

In test [1] the target is T1, CPXV CPXV199 (cowpox virus (CPXV)).
Test [2] deals with T2, VARV B7 (variola virus (VARV)).
Test [3] concerns the target T3, VACV B5 (vaccinia virus (VACV), UniProt Q01227 18-317).
Test [4] has as its target T1, CPXV CPXV199. This is another data set of the same source.
A further test addresses MPXV B6 protein (monkeypox virus (MPXV)).
For test [5], the target named is T2, VARV B7. This is another data set of the same source.
Test [6] concerns the target T3, VACV B5. This is another data set of the same source.

B1: hMB621 (antibody, V domains shown)
VH: QVQLVQSGGGVVQPGRSLRLSCVASGFSISTYPLHWVRQAPGKGLEWVAVISHDGRNKYYADSVKGRFSISRDNSKNTVYLQMNSLRVEDTAVYYCARAYPYAFDVWGQGTLVTVSS
VL: EIVLTQSPATLSVSPGETATLSCRASQSVRNDLAWYQQKPGQAPRLLIYGASTRASGIPARFSGSGSGTEFTLTISSLQSEDFAIYYCQQYKDWPPWTFGQGTKVEIK
For the molecule B1, the results for the Kd with CPXV CPXV199 [1], in the test with VARV B7 [2] and with VACV B5 [3] were 2.6 nM, 5.1 nM and 2.8 nM, respectively. The koff was found to be 0.00011 s⁻¹ with CPXV CPXV199 [4], 9.7e-05 s⁻¹ with MPXV B6 protein, 0.00019 s⁻¹ with VARV B7 [5] and 0.00017 s⁻¹ with VACV B5 [6].

B2: hMB668 (antibody, V domains shown)
VH: QVQLVQSGAEVKKPGSSVKVSCKSSGGTFSDYAINWVRQAPGQGLEWMGRILPIVGVPNYAQKFQGRVTITADKSSSTAYKEVSGLRSEDTAVYYCARRSGINGHGLDVWGQGTTVIVSS
VL: DIVMTQSPLSLPVTPGEPASISCRSSQSLLNTNGYNYLEWYLHKPGQSPQLLIYLGSHRASGVPDRFSGSGSGTDFTLKISRAEPEDVGVYYCMQTLQTQGYTFGQGTKLEIK
Turning to B2, the Kd with CPXV CPXV199 [1] was determined as 27.2 nM; with VARV B7 [2] it was 15.8 nM; with VACV B5 [3] it was 3.1 nM. For the same molecule, the koff with CPXV CPXV199 [4] stood at 0.00011 s⁻¹; with MPXV B6 protein, 7.8e-05 s⁻¹; in the test with VARV B7 [5], 5.5e-05 s⁻¹; in the test with VACV B5 [6], 8.2e-05 s⁻¹.
